B1: SMG5 (parent)
chain: TRKLSPGKKRCKDIKRLLVNFMYL

From the supplement of paper PMC10567573 come the findings set out here.
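Also: lentivirally expressed fusions sorted by FACS into six bins by GFP to DsRed ratio, PSI derived from sequencing read proportions per bin multiplied by bin number.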

The data set covers variants of B1. Put plainly: protein stability index of a GFP-peptide fusion (GPS, HEK-293T) (PSI 1-6); higher = more stable. The note with it: c terminus: a fixed tail appended.
TRKLSPGKKRCKDIKRLLVHFMYL [N20H]: the protein stability index is 3.2. With TRKLSPGKKRCKDIKRLLVQFMYL [N20Q] the figure was 3.52. The value for TRKLSPGKKRCKDIKRLLVDFMYL [N20D] was 3.56.

In the case of TRKLSPGKKRCKDIKRLLVEFMYL [N20E], the protein stability index came out at 3.09. The value for TRKLSPGKKRCKDIKRLLVIFMYL [N20I] was 3.42; that for TRKLSPGKKRCKDIKRLLVYFMYL [N20Y] was 2.56; that for TRKLSPGKKRCKDIKRLLVFFMYL [N20F] was 4.01. With TRKLSPGKKRCKDIKRLLVVFMYL [N20V] the figure was 2.79; with TRKLSPGKKRCKDIKRLLVSFMYL [N20S], 3.78; with TRKLSPGKKRCKDIKRLLVWFMYL [N20W], 1.09.

As for TRKLSPGKKRCKDIKRLLVPFMYL [N20P], the protein stability index amounted to 3.07. As to TRKLSPGKKRCKDIKRLLVKFMYL [N20K], the protein stability index was 2.12. With TRKLSPGKKRCKDIKDLLVNFMYL [R16D] the figure was 1.6; with TRKLSPGKKRCKDIKTLLVNFMYL [R16T], 2.9.

Regarding TRKLSPGKKRCKDIKNLLVNFMYL [R16N], the protein stability index turned out to be 2.58. The value for TRKLSPGKKRCKDIKALLVNFMYL [R16A] was 2.73. With TRKLSPGKKRCKDIKKLLVNFMYL [R16K] the figure was 2.01; with TRKLSPGKKRCKDIKPLLVNFMYL [R16P], 2.24. With TRKLSPGKKRCKDIKWLLVNFMYL [R16W], the protein stability index turned out to be 3.81.

Regarding TRKLSPGKKRCKDIKQLLVNFMYL [R16Q], the protein stability index turned out to be 1.27. With TRKLSPGKKRCKDIKCLLVNFMYL [R16C] the figure was 2.27.

Take TRKLSPGKKRCKDIKLLLVNFMYL [R16L]: the protein stability index came to 1.66. The value for TRKLSPGKKRCKDIKELLVNFMYL [R16E] was 2.42; that for TRKLSPGKKRCKDIKSLLVNFMYL [R16S] was 1.36; that for TRKLSPGKKRCKDIKILLVNFMYL [R16I] was 3.39.

For the variant TRKLSPGKKRCKDIKGLLVNFMYL [R16G], the protein stability index worked out at 1.71. The value for TRKLSPGKKRCKDIKMLLVNFMYL [R16M] was 4.38; that for TRKLSPGKKRCKDIKRLLVNFMDL [Y23D] was 2.01; that for TRKLSPGKKRCKDIKRLLVNFMPL [Y23P] was 1.81.

Take TRKLSPGKKRCKDIKRLLVNFMSL [Y23S]: the protein stability index is 3.81.

On to TRKLSPGKKRCKDIKRLLVNFMRL [Y23R], for which the protein stability index came to 2.05. On to TRKLSPGKKRCKDIKRLLVNFMAL [Y23A], for which the protein stability index came out at 2.85. With TRKLSPGKKRCKDIKRLLVNFMVL [Y23V], the protein stability index was 4.04. With TRKLSPGKKRCKDIKRLLVNFMFL [Y23F] the figure was 1.64; with TRKLSPGKKRCKDIKRLLVNFMHL [Y23H], 2.35. With TRKLSPGKKRCKDIKRLLVNFMIL [Y23I] the figure was 3.31; with TRKLSPGKKRCKDIKRLLVNFMTL [Y23T], 2.18.

Regarding TRKLSPGKKRCKDIKRLLVNFMWL [Y23W], the protein stability index is 2.16. With TRKLSPGKKRCKDIKRLLVNFMKL [Y23K] the figure was 2.93; with TRKLSPGKKRCKDIKRLLVNFMML [Y23M], 2.94; with TRKLSPGKKRCKLIKRLLVNFMYL [D13L], 2.93. The value for TRKLSPGKKRCKCIKRLLVNFMYL [D13C] was 1.84; that for TRKLSPGKKRCKMIKRLLVNFMYL [D13M] was 2.54.

Regarding TRKLSPGKKRCKNIKRLLVNFMYL [D13N], the protein stability index is 1.5. The value for TRKLSPGKKRCKKIKRLLVNFMYL [D13K] was 2.07. The value for TRKLSPGKKRCKYIKRLLVNFMYL [D13Y] was 1.79; that for TRKLSPGKKRCKIIKRLLVNFMYL [D13I] was 3.25; that for TRKLSPGKKRCKSIKRLLVNFMYL [D13S] was 2.42. With TRKLSPGKKRCKVIKRLLVNFMYL [D13V] the figure was 3.74; with TRKLSPGKKRCKTIKRLLVNFMYL [D13T], 3.66. For the variant TRKLSPGKKRCKRIKRLLVNFMYL [D13R], the protein stability index is 1.71. For the variant TRKLSPGKKRCKPIKRLLVNFMYL [D13P], the protein stability index stood at 2.62. With TRKLSPGKKRCKAIKRLLVNFMYL [D13A] the figure was 2.75; with TRKLSPGKKRCKQIKRLLVNFMYL [D13Q], 3.52. The value for TRKLSPGKKRCKDIKRLLVNFRYL [M22R] was 2.4; that for TRKLSPGKKRCKDIKRLLVNFPYL [M22P] was 2.39. The value for TRKLSPGKKRCKDIKRLLVNFTYL [M22T] was 2.11; that for TRKLSPGKKRCKDIKRLLVNFKYL [M22K] was 1.86. As to TRKLSPGKKRCKDIKRLLVNFSYL [M22S], the protein stability index came to 1.39. With TRKLSPGKKRCKDIKRLLVNFHYL [M22H] the figure was 1.65; with TRKLSPGKKRCKDIKRLLVNFYYL [M22Y], 2.96; with TRKLSPGKKRCKDIKRLLVNFGYL [M22G], 2.04.

For TRKLSPGKKRCKDIKRLLVNFNYL [M22N], the protein stability index worked out at 1.95.

On to TRKLSPGKKRCKDIKRLLVNFVYL [M22V], for which the protein stability index was found to be 2.33. With TRKLSPGKKRCKDIKRLLVNFCYL [M22C] the figure was 1.75; with TRKLSPGKKRCKDIKRLLVNFFYL [M22F], 2.29; with TRKLSPGKKRCKDIKRLLVNFDYL [M22D], 2.34. As for TRKLSPGKKRCKDIKRLLVNFEYL [M22E], the protein stability index was determined as 2.45. With TRKLSPGKKRCKDIKRLLVNFQYL [M22Q] the figure was 1.34. Take TRKLSPGKKRCLDIKRLLVNFMYL [K12L]: the protein stability index was found to be 3.13. With TRKLSPGKKRCQDIKRLLVNFMYL [K12Q] the figure was 2.46. The value for TRKLSPGKKRCNDIKRLLVNFMYL [K12N] was 2.14; that for TRKLSPGKKRCRDIKRLLVNFMYL [K12R] was 2.47; that for TRKLSPGKKRCWDIKRLLVNFMYL [K12W] was 3.15. In the case of TRKLSPGKKRCTDIKRLLVNFMYL [K12T], the protein stability index turned out to be 2.96.

With TRKLSPGKKRCYDIKRLLVNFMYL [K12Y], the protein stability index was 2.96. On to TRKLSPGKKRCPDIKRLLVNFMYL [K12P], for which the protein stability index stood at 2.41.

Turning to TRKLSPGKKRCMDIKRLLVNFMYL [K12M], the protein stability index was 1.74.

Consider TRKLSPGKKRCVDIKRLLVNFMYL [K12V], for which the protein stability index turned out to be 2.02. For the variant TRKLSPGKKRCSDIKRLLVNFMYL [K12S], the protein stability index came out at 2.06.

Turning to TRKLSPGKKRCKDGKRLLVNFMYL [I14G], the protein stability index worked out at 1.18. With TRKLSPGKKRCKDNKRLLVNFMYL [I14N] the figure was 1.45; with TRKLSPGKKRCKDAKRLLVNFMYL [I14A], 2.13. In the case of TRKLSPGKKRCKDWKRLLVNFMYL [I14W], the protein stability index worked out at 2.49. With TRKLSPGKKRCKDDKRLLVNFMYL [I14D] the figure was 1.56; with TRKLSPGKKRCKDVKRLLVNFMYL [I14V], 2.2. With TRKLSPGKKRCKDSKRLLVNFMYL [I14S] the figure was 2.53; with TRKLSPGKKRCKDFKRLLVNFMYL [I14F], 2.36. With TRKLSPGKKRCKDKKRLLVNFMYL [I14K] the figure was 1.19; with TRKLSPGKKRCKDTKRLLVNFMYL [I14T], 2.05; with TRKLSPGKKRCKDPKRLLVNFMYL [I14P], 3.95. For the variant TRKLSPGKKRCKDRKRLLVNFMYL [I14R], the protein stability index came to 2.19. With TRKLSPGKKRCKDLKRLLVNFMYL [I14L], the protein stability index turned out to be 2.27. With TRKLSPGKKRCKDHKRLLVNFMYL [I14H] the figure was 2.23.
